Measurements: patent US20120294796A1 (MacroGenics, published 2012)

T1: human B7-H3 on the surface of human cell lines (human, UniProt Q5ZPR3 29-534)
T1 construct: whole, on cells; also called B7-H3 present on the surface of cancer cells
T1 sequence (looked up): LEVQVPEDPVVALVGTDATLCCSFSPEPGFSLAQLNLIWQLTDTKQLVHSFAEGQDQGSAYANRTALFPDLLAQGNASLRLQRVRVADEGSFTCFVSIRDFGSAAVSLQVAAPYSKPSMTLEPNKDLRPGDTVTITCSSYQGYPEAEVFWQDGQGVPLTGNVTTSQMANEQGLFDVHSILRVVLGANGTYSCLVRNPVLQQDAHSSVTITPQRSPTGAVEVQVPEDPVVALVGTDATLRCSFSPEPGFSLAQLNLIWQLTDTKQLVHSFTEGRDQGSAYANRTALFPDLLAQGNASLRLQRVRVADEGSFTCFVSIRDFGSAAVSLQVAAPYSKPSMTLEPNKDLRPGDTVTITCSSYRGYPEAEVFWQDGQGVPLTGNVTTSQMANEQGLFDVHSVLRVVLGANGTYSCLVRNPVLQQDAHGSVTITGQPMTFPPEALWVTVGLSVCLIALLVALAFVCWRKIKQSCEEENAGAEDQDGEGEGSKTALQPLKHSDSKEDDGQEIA

B1: PRCA157 (antibody, IgG1, V domains shown)
VH: EVQQVESGGDLVKPGGSLKLSCAASGFTFSSYGMSWVRQTPDKRLEWVATINSGGSNTYYPDSLKGRFTISRDNAKNTLYLQMRSLKSEDTAMYYCARHDGGAMDYWGQGTSVTVSS
VL: DIQMTQSPASLSVSVGETVTITCRASESIYSYLAWYQQKQGKSPQLLVYNTKTLPEGVPSRFSGSGSGTQFSLKINSLQPEDFGRYYCQHHYGTPPWTFGGGTNLEIK
B2: BRCA69D (antibody, IgG1, V domains shown)
VH: QVQLQQSGAELARPGASVKLSCKASGYTFTSYWMQWVKQRPGQGLEWIGTIYPGDGDTRYTQKFKGKATLTADKSSSTAYMQLSSLASEDSAVYYCARRGIPRLWYFDVWGAGTTVTVSS
VL: DIQMTQTTSSLSASLGDRVTISCRASQDISNYLNWYQQKPDGTVKLLIYYTSRLHSGVPSRFSGSGSGTDYSLTIDNLEQEDIATYFCQQGNTLPPTFGGGTKLEIK
notes: also called BRCA69A (probable misprint)
B3: BRCA84D (antibody, IgG1, V domains shown)
VH: DVQLVESGGGLVQPGGSRKLSCAASGFTFSSFGMHWVRQAPEKGLEWVAYISSDSSAIYYADTVKGRFTISRDNPKNTLFLQMTSLRSEDTAMYYCGRGRENIYYGSRLDYWGQGTTLTVSS
VL: DIAMTQSQKFMSTSVGDRVSVTCKASQNVDTNVAWYQQKPGQSPKALIYSASYRYSGVPDRFTGSGSGTDFTLTINNVQSEDLAEYFCQQYNNYPFTFGSGTKLEIK

target: T1, human B7-H3 on the surface of human …; experiment: FACS, fluorescein-labeled mAb, A498 cells

| Binder | FACS MFI |
| --- | --- |
| B1 | 58.8 MFI |
| B2 | 84.1 MFI |
| B3 | 30.6 MFI |

target: T1, human B7-H3 on the surface of human …; experiment: FACS, fluorescein-labeled mAb, A549 cells

| Binder | FACS MFI |
| --- | --- |
| B1 | 44.3 MFI |
| B2 | 60.5 MFI |
| B3 | 25 MFI |

target: T1, human B7-H3 on the surface of human …; experiment: FACS, fluorescein-labeled mAb, LNCaP cells

| Binder | FACS MFI |
| --- | --- |
| B1 | 16.4 MFI |
| B2 | 92.4 MFI |
| B3 | 16.4 MFI |
